In article PMC9353652 (Journal of the American Chemical Society, 2021):

Experiments:
[1] = target: ATP-grasp ligase CdnC (Chryseobacterium gregarium DSM 19109); assay: SEC

Row | stoichiometry N [1] | inhibition of chymotrypsin activity (protease inhibition assay) (chymotrypsin) | Substance
1 | 2 | – | ATP-grasp ligase CdnC (enzyme)
2 | – | 70 nM | chryseoviridin (fully cyclized, full length core region of CdnA3) (peptide)
